Paper PMC5578738
One block for each substance: values may come before it.

Assays:
[1] = target: Beat-VI complete ectodomain, biotinylated (SPR) (Drosophila melanogaster) (UniProt Q9VAV8); experiment: SPR; Biacore 3000; biotinylated Beat-VI or Beat-Ic captured on an SA chip, Side-II or Side-III fragments flowed over; HBSp+ and 1% (w/v) BSA; equilibrium fit, three titration series
[2] = target: Beat-Ic complete ectodomain, biotinylated (SPR) (Drosophila melanogaster) (UniProt Q7JUP9); experiment: as above
[3] = target: Side-VI (CG34114) complete ectodomain, biotinylated (SPR) (Drosophila melanogaster) (UniProt Q0KI85); experiment: SPR; Biacore T100; biotinylated Side-VI captured on an SA chip, Beat-Va or Beat-Vb flowed over; HBSp+ with 500 mM NaCl and 15% glycerol; equilibrium responses fitted to a Langmuir isotherm
Chain of Side-VI (CG34114) complete ectodomain, biotinylated (SPR) (Drosophila melanogaster) (Q0KI85 entry or part of it): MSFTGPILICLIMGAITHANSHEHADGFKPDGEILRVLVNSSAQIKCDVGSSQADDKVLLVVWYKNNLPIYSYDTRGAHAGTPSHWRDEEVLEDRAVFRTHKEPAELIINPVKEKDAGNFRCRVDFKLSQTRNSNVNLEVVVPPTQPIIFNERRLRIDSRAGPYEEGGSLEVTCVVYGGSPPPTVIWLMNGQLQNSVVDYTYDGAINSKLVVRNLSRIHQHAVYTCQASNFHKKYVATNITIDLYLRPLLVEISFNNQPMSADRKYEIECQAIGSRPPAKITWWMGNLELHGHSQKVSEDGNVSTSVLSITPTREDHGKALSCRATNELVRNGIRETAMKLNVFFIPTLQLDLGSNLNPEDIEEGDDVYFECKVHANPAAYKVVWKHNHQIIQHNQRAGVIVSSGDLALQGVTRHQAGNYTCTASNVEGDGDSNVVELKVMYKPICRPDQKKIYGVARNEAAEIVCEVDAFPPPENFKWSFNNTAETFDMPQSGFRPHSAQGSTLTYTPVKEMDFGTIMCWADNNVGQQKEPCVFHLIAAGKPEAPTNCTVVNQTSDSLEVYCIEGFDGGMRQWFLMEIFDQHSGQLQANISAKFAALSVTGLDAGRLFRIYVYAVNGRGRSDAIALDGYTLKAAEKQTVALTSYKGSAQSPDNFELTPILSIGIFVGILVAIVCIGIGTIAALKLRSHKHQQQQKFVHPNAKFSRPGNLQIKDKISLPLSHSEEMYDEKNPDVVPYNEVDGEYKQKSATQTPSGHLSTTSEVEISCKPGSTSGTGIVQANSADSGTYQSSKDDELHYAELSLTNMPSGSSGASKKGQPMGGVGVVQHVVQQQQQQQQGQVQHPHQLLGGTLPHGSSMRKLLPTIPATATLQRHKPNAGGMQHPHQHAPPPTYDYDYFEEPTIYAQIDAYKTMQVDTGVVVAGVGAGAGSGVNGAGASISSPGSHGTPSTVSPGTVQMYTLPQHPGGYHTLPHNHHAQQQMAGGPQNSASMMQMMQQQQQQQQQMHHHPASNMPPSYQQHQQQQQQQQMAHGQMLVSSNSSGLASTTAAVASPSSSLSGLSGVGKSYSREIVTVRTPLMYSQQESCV

Chain of Beat-Ic complete ectodomain, biotinylated (SPR) (Drosophila melanogaster) (Q7JUP9 entry or part of it): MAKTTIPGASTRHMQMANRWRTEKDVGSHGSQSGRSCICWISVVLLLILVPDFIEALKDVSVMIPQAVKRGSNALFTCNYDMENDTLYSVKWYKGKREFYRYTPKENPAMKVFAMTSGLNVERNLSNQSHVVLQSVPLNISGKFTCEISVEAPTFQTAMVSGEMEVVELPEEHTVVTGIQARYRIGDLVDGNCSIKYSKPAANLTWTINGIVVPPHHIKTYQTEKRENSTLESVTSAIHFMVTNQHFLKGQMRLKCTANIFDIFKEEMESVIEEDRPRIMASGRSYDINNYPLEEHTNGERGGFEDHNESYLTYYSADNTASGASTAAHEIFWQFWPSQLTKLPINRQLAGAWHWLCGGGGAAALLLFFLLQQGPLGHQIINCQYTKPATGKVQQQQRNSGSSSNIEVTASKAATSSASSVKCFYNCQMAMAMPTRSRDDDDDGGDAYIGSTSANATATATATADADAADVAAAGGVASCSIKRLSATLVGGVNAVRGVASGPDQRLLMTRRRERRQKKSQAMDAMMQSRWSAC
Chain of Beat-VI complete ectodomain, biotinylated (SPR) (Drosophila melanogaster) (Q9VAV8 entry or part of it): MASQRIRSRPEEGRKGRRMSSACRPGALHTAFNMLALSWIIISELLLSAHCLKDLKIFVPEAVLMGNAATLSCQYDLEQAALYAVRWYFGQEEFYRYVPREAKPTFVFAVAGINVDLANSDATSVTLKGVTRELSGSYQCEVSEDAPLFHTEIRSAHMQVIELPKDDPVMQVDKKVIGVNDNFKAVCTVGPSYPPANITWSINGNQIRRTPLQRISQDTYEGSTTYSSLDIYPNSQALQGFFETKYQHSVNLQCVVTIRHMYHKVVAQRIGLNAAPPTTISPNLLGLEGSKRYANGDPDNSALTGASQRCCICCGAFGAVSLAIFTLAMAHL

Kd [1]: 2780 nM
Substance: Side-II N-terminal single IgSF domain (SPR) (from UniProt Q59DZ1 1-1064) (domain or fragment)

Kd [2]: 63500 nM
Substance: Side-III N-terminal single IgSF domain (SPR) (domain or fragment)

Kd [3]: 2300 nM | koff [3]: > 0.5 s⁻¹
Substance: Beat-Vb complete ectodomain (SPR) (from UniProt Q9VG19 1-328) (domain or fragment)
